Data as given in patent US20150344570A1 (published 2015).
Residue numbers refer to the chain shown, from its start.

T1: FcγRIIa H (FcγRIIa, allotype with His at position 131), extracellular domain with C-terminal His tag (human, UniProt P12318 34-217)
T1 construct: extracellular domain; also called FcgRIIa H; 2aH; not shown: His tag at the C terminus
T1 sequence (looked up): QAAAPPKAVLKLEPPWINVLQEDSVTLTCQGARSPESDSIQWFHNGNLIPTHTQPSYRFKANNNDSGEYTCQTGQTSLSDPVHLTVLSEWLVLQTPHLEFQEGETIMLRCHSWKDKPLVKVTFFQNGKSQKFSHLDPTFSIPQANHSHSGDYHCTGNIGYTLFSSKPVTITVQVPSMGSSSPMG

T2: FcγRIIb, extracellular domain with C-terminal His tag (human, UniProt P31994 43-217)
T2 construct: extracellular domain; also called FcgRIIb; 2b; not shown: His tag at the C terminus
T2 sequence (looked up): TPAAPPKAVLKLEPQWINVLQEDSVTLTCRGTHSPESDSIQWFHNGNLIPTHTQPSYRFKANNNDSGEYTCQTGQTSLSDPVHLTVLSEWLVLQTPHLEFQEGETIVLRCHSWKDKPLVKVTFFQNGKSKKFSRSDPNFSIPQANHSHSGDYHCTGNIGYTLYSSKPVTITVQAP

T3: FcgRIIaR (human, UniProt P12318 34-217)
T3 construct: extracellular domain; also called FcγRIIa R; FcgRIIa type R; not shown: His tag attached to the C terminus
T3 sequence (looked up): T1 sequence (looked up) with H134R

T4: FcgRIIaH (human, UniProt P12318 34-217)
T4 construct: extracellular domain; also called FcγRIIa H; FcgRIIa type H; not shown: His tag attached to the C terminus
T4 sequence (looked up): T1 sequence (looked up)

T5: FcgRIIb (human, UniProt P31994 43-217)
T5 construct: extracellular domain; also called FcγRIIb; 2b; not shown: His tag attached to the C terminus
T5 sequence (looked up): T2 sequence (looked up)

B1: GpH7-A5/GpH7-B3 variant A327_03V/GpL16-k0 (antibody, human IgG1, kappa)
heavy 1: not shown
heavy 2: not shown
light: DIVMTQSPLSLPVTPGEPASISCQASESLVHSNRNTYLHWYLQKPGQSPQLLIYKVSNRFSGVPDRFSGSGSGTDFTLKISRVEAEDVGVYYCSQNTHVPPTFGQGTKVEIERTVAAPSVFIFPPSDEQLKSGTASVVCLLNNFYPREAKVQWKVDNALQSGNSQESVTEQDSKDSTYSLSSTLTLSKADYEKHKVYACEVTHQGLSSPVTKSFNRGEC
notes: Heterodimerized anti-glypican-3 IgG1; mutation in one H chain only; also called He Ab
B2: GpH7-A5/GpH7-B3 variant A327_18N/GpL16-k0 (antibody, human IgG1, kappa)
heavy 1: not shown
heavy 2: not shown
light: B1 light
notes: as for B1
B3: GpH7-A5/GpH7-B3 variant A327_07I/GpL16-k0 (antibody, human IgG1, kappa)
heavy 1: not shown
heavy 2: not shown
light: B1 light
notes: as for B1
B4: GpH7-A5/GpH7-B3 variant L328_03V/GpL16-k0 (antibody, human IgG1, kappa)
heavy 1: not shown
heavy 2: not shown
light: B1 light
notes: as for B1
B5: GpH7-A5/GpH7-B3 variant A327_08L/GpL16-k0 (antibody, human IgG1, kappa)
heavy 1: not shown
heavy 2: not shown
light: B1 light
notes: as for B1
B6: GpH7-A5/GpH7-B3 variant A330_05P/GpL16-k0 (antibody, human IgG1, kappa)
heavy 1: not shown
heavy 2: not shown
light: B1 light
notes: as for B1
B7: GpH7-A5/GpH7-B3 variant A327_10E/GpL16-k0 (antibody, human IgG1, kappa)
heavy 1: not shown
heavy 2: not shown
light: B1 light
notes: as for B1
B8: GpH7-A5/GpH7-B3 variant A327_14T/GpL16-k0 (antibody, human IgG1, kappa)
heavy 1: not shown
heavy 2: not shown
light: B1 light
notes: as for B1
B9: GpH7-A5/GpH7-B3 variant I332_10E/GpL16-k0 (antibody, human IgG1, kappa)
heavy 1: not shown
heavy 2: not shown
light: B1 light
notes: as for B1
B10: GpH7-A5/GpH7-B3 variant A327_09D/GpL16-k0 (antibody, human IgG1, kappa)
heavy 1: not shown
heavy 2: not shown
light: B1 light
notes: as for B1
B11: H240-Kn215/H240-Hl076/L73-k0 (antibody, human IgG1, kappa)
heavy 1: QDQLVQSGAEVKKPGASVKVSCKASGFNIKDTYIQWVRQAPGQGLEWMGRIDPLRKQTKYREKFEGRVTITADTSTNTAYMELSSLRSEDTAVYYCVRSGREFDYWGQGTLVTVSSASTKGPSVFPLAPSSKSTSGGTAALGCLVKDYFPEPVTVSWNSGALTSGVHTFPAVLQSSGLYSLSSVVTVPSSSLGTQTYICNVNHKPSNTKVDKKVEPKSCDKTHTCPPCPAPEHQWGPMVFLFPPKPKDTLMISRTPEVTCVVVDVSDEEPEVKFNWYVDGVEVHNAKTKPREEQYNATYRVVSVLTVLHQDWLNGKEYKCKVSNKALPAPIEKTISKAKGQPREPQVCTLPPSRDELTKNQVSLWCLVKGFYPSDIAVEWESNGQPENNYKTTPPVLDSDGSFFLYSKLTVDKSRWQQGNVFSCSVMHEALHNHYTQKSLSLSP
heavy 2: QDQLVQSGAEVKKPGASVKVSCKASGFNIKDTYIQWVRQAPGQGLEWMGRIDPLRKQTKYREKFEGRVTITADTSTNTAYMELSSLRSEDTAVYYCVRSGREFDYWGQGTLVTVSSASTKGPSVFPLAPSSKSTSGGTAALGCLVKDYFPEPVTVSWNSGALTSGVHTFPAVLQSSGLYSLSSVVTVPSSSLGTQTYICNVNHKPSNTKVDKKVEPKSCDKTHTCPPCPAPELLGGPSVFLFPPKPKDTLMISRTPEVTCVVVDVSHEEPEVKFNWYVDGVEVHNAKTKPREEQYNSTYRVVSVLTVLHQDWLNGKEYKCKVSNDALPMPIEETISKAKGQPREPQVYTLPPSRCELTKNQVSLSCAVKGFYPSDIAVEWESNGQPENNYKTTPPVLDSDGSFFLVSKLTVDKSRWQQGNVFSCSVMHEALHNHYTQKSLSLSP
light: DIQMTQSPSSLSASVGDRVTITCRASQDIHKYIAWYQQKPGQAPRLLIQYTSTLQPGVPSRFSGSGSGTDYTFTISSLQPEDIATYYCLQYEQLRTFGGGTKVEIKRTVAAPSVFIFPPSDEQLKSGTASVVCLLNNFYPREAKVQWKVDNALQSGNSQESVTEQDSKDSTYSLSSTLTLSKADYEKHKVYACEVTHQGLSSPVTKSFNRGEC
notes: Anti-epiregulin heterodimerized IgG1, knobs-into-holes
B12: H240-Kn223/H240-Hl068/L73-k0 (antibody, human IgG1, kappa)
heavy 1: B11 heavy 1 with H233G, Q234Y, E269D, A326D
heavy 2: B11 heavy 2 with M329K
light: B11 light
notes: as for B11
B13: H240-Kn222/H240-Hl068/L73-k0 (antibody, human IgG1, kappa)
heavy 1: B11 heavy 1 with H233A, Q234Y, E269D, A326D
heavy 2: B11 heavy 2 with M329K
light: B11 light
notes: as for B11
B14: H240-Kn218/H240-Hl068/L73-k0 (antibody, human IgG1, kappa)
heavy 1: B11 heavy 1 with H233Q, Q234Y, E269D, A326D
heavy 2: B11 heavy 2 with M329K
light: B11 light
notes: as for B11
B15: H240-Kn221/H240-Hl068/L73-k0 (antibody, human IgG1, kappa)
heavy 1: B11 heavy 1 with H233T, Q234Y, E269D, A326D
heavy 2: B11 heavy 2 with M329K
light: B11 light
notes: as for B11
B16: H240-Kn220/H240-Hl068/L73-k0 (antibody, human IgG1, kappa)
heavy 1: B11 heavy 1 with H233M, Q234Y, E269D, A326D
heavy 2: B11 heavy 2 with M329K
light: B11 light
notes: as for B11
B17: H240-Kn216/H240-Hl068/L73-k0 (antibody, human IgG1, kappa)
heavy 1: B11 heavy 1 with H233V, Q234Y, E269D, A326D
heavy 2: B11 heavy 2 with M329K
light: B11 light
notes: as for B11
B18: H240-Kn217/H240-Hl068/L73-k0 (antibody, human IgG1, kappa)
heavy 1: B11 heavy 1 with H233D, Q234Y, E269D, A326D
heavy 2: B11 heavy 2 with M329K
light: B11 light
notes: as for B11
B19: H240-Kn224/H240-Hl068/L73-k0 (antibody, human IgG1, kappa)
heavy 1: B11 heavy 1 with Q234Y, E269D, A326D
heavy 2: B11 heavy 2 with M329K
light: B11 light
notes: as for B11
B20: H240-Kn219/H240-Hl068/L73-k0 (antibody, human IgG1, kappa)
heavy 1: B11 heavy 1 with H233I, Q234Y, E269D, A326D
heavy 2: B11 heavy 2 with M329K
light: B11 light
notes: as for B11

The binders below were run against T1, FcγRIIa H (FcγRIIa, allotype with His …) (assay: SPR (Biacore); He/Con_2aH divided by He/Con_2b (FcγRIIb)).

He_2aH/2b (IIaH/IIb) [ratio] | Binder
0.54 | B1
0.59 | B2
0.46 | B3
0.78 | B4
0.74 | B5
0.63 | B6
0.65 | B7
0.51 | B8
0.76 | B9
0.61 | B10

These binders were tested against T1, FcγRIIa H (FcγRIIa, allotype with His …) (assay: SPR (Biacore), relative binding vs GpH7-A5/GpH7-B3/GpL16-k0).

He/Con_2aH | Binder
51 % of HeCon Ab (=100) | B1
66.8 % of HeCon Ab (=100) | B2
58.4 % of HeCon Ab (=100) | B3
97.8 % of HeCon Ab (=100) | B4
46.9 % of HeCon Ab (=100) | B5
85.7 % of HeCon Ab (=100) | B6
91.3 % of HeCon Ab (=100) | B7
45.6 % of HeCon Ab (=100) | B8
108 % of HeCon Ab (=100) | B9
105 % of HeCon Ab (=100) | B10

These binders were tested against T2, FcγRIIb, extracellular domain with … in the same assay as above.

He/Con_2b | Binder
94.7 % of HeCon Ab (=100) | B1
113 % of HeCon Ab (=100) | B2
127 % of HeCon Ab (=100) | B3
126 % of HeCon Ab (=100) | B4
63.1 % of HeCon Ab (=100) | B5
137 % of HeCon Ab (=100) | B6
140 % of HeCon Ab (=100) | B7
89.4 % of HeCon Ab (=100) | B8
142 % of HeCon Ab (=100) | B9
172 % of HeCon Ab (=100) | B10

What follows are binders tested against T3, FcgRIIaR (assay: SPR (Biacore); KD of H240-Kn033/H240-Hl033/L73-k0 divided by KD of this variant).

fold 2aR [fold] | Binder
0.7 | B11
11.9 | B12
26.4 | B13
20 | B14
25.5 | B15
29.6 | B16
32.2 | B17
26.4 | B18
13.7 | B19
52.9 | B20

What follows are binders tested against T4, FcgRIIaH in the same assay as above.

fold 2aH [fold] | Binder
2.1 | B11
5.5 | B12
10.6 | B13
15.8 | B14
11.8 | B15
15.3 | B16
16.3 | B17
6.8 | B18
9.1 | B19
26 | B20

The binders below were run against T5, FcgRIIb in the same assay as above.

fold 2b [fold] | Binder
0.5 | B11
11.8 | B12
17.4 | B13
15 | B14
15 | B15
20.6 | B16
20.6 | B17
27.5 | B18
9.2 | B19
36.7 | B20

What follows are binders tested against T6, FcgRIIIaF (human, UniProt P08637 17-208) in the same assay as above.
T6 construct: extracellular domain; also called FcγRIIIa F; 3aF; not shown: His tag attached to the C terminus
T6 sequence (P08637 17-208): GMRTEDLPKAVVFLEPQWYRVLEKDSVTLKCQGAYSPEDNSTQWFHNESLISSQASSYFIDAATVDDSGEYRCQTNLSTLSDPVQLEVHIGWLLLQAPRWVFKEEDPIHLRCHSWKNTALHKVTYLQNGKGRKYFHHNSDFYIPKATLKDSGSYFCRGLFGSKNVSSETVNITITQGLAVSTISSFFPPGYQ

fold 3aF [fold] | Binder
112 | B11
69 | B12
87.9 | B13
82.9 | B14
107 | B15
82.9 | B16
85.3 | B17
121 | B18
72.5 | B19
107 | B20

The binders below were run against T7, FcgRIIIaV (human, UniProt P08637 17-208) in the same assay as above.
T7 construct: extracellular domain; also called FcγRIIIa V; 3aV; not shown: His tag attached to the C terminus
T7 sequence (P08637 17-208 F176V limits assumed): as the sequence (P08637 17-208) above, with F160V counted along it

fold 3aV [fold] | Binder
70.6 | B11
84.2 | B12
88.9 | B13
96 | B14
102 | B15
96 | B16
104 | B17
126 | B18
90.6 | B19
98 | B20
